The text below walks through data of publication PMC6423285.

One assay addresses NBS1 FHA+BRCT1/2 (UniProt O60934). The experiment in a line: peptide-bead pull-down of purified GST fusion. The settings on record: reference: non-phospho peptide …; sites S462.
Another assay has as its target NBS1 (UniProt O60934). The experiment in a line: peptide-bead pull-down from cell lysate. The conditions noted are these: reference: non-phospho peptide …; sites S462.

Consider “UFL1 (from UniProt O94874) pS462 peptide”, for which the “binding against the reference” value in the assay with NBS1 FHA+BRCT1/2 and with NBS1 was “stronger” each time.
